According to patent publication US20040162413A1 (published 2004):

Columns and labels:
[1] = target: T1, human von Willebrand Factor (human, UniProt P04275 764-2813); assay: ELISA: human vWF captured on goat anti-human vWF coated plates, Fab dilutions, goat anti-human kappa alkaline phosphatase, O.D. 560 after 30 min
T1 construct: In the ELISA captured on plates by goat anti-human vWF; biotinylated in the plaque lift; also called vWF; human vWF

CD40-Ig fusion protein [2] = target: T2, CD40-Ig fusion protein (UniProt P25942 21-193); assay: SPR (BIAcore), CD40-Ig immobilised, purified Fab in solution
T2 construct: also called CD40-Ig antigen; CD40 receptor; not shown: Ig part, not described; in the ELISA and capture lift it is detected with goat anti-mouse IgG2b conjugate

CD40-Ig fusion protein [3] = target: T2, CD40-Ig fusion protein; assay: SPR (BIAcore), CD40-Ig immobilised

T2 sequence (P25942 21-193): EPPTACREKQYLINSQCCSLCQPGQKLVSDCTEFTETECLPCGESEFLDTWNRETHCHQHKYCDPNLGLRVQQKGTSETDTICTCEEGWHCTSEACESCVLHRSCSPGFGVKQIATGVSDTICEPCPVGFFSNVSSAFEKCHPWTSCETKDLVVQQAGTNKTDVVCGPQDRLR

Row | Binder | EC50 (read off the curve) [1] [µg/mL] | Kd (CD40-Ig fusion protein [2]) [nM] | fold lower affinity against CW43 (CD40-Ig fusion protein [3]) [fold]
1 | anti-vWF combinatorial library clone C1 Fab (Fab, V domains shown, Fab with human CL and CH1) VH: EVQLVESGGGLVQPGGSLRLSCAASGFSLGDYGVDWVRQAPGKGLEWVGMIWPDGSTDYNSALQSRFTISRDDSKNSLYLQMNSLKTEDTAVYYCARDPADYGNYNYALDYWGQGTTVTVS VL: DIQMTQSPSSLSASVGDRVTITCSASQDINDYLNWYQQKPGKAPKLLIYNTSSLHSGVPSRFSGSGSGTDFTLTISSLQPEDFATYYCQQYEDLPWTFGGGTKVEIK | ~0.02 |  | 
2 | anti-vWF combinatorial library clone C4 Fab (Fab, V domains shown, Fab with human CL and CH1) VH: EVQLVESGGGLVQPGGSLRLSCAASGFSLGDYGVDWVRQAPGKGLEWVGMIWGDGSVDVNSALQSRFTISRDDSKNSLYLQMNSLKTEDTAVYYCARDPADYGNYNYALDYWGQGTTVTVS VL: DIQMTQSPSSLSASVGDRVTITCSASQDINDYLNWYQQKPGKAPKLLIYGTSSLHSGVPSRFSGSGSGTDFTLTISSLQPEDFATYYCQQYEDLPWTFGGGTKVEIK | ~0.02 |  | 
3 | NMC-4 antibody (parental/donor antibody) (antibody, V domains shown, also called parental/donor NMC-4 antibody) VH: VQLLESGPGLVAPSQSLSITCTVSGFSLTDYGVDWVRQPPGKGLEWLGMIWGDGSTDYNSALKSRLSITKDNSKSQVFLKMNSLQTDDTARYYCVRDPADYGNYDYALDYWGQGTSVTVS VL: SSLSASLGDRVTISCSASQDINKYLNWYQQKPDGAVKLLIFYTSSLHSGVPSRFSGSGSGTDYSLTISNLEPEDIATYYCQQYEKLPWTFGGGTKLEVK | ~0.03 |  | 
4 | chimeric anti-CD40 Fab (variable regions of murine mAb 40.2.220) (Fab, V domains shown, Fab expressed in bacteria from vector M13IX104CS (human kappa and gamma 1 constant regions, terminal cysteines replaced by serine); purified Fabs carry a six-histidine tag at the C-terminus of the H chain; also called chimeric Fab; chimeric CD40) VH: QIQLVQSGPELKKPGETVRISCKASGYAFTTTGMQWVQEMPGKGLKWIGWINTHSGVPKYVEDFKGRFAFSLETSANTAYLQISNLKNEDTATYFCVRSGNGNYDLAYFAYWGQGTLVTVSA VL: DIVLTQSPATLSVTPGDRVSLSCRASQSISDYLHWYQQKSHESPRLLIKYASHSISGIPSRFSGSGSGSDFTLSINSVEPEDVGIYYCQHGHSFPRTFGGGTKLEIK |  | 48.3 | 
5 | Y49K, derivative of clone CW43 made by site-directed mutagenesis (anti-CD40 Fab) (Fab, V domains shown, Fab, human constant regions; framework identical to clone 1H11; also called clone Y49K) VH: QVQLVQSGPELKKPGASVKVSCKASGYAFTTTGMQWVRQAPGQGLEWMGWINTHSGVPKYVEDFKGRFVFSLDTSVSTAYLQISSLKAEDTAVYFCARSGNGNYDLAYFRYWGQGTLVTVSS VL: EIVLTQSPATLSLSPGERATLSCRASQSISDYLHWYQQKPGQAPRLLIKYASHSISGIPARFSGSGSGTDFTLTISSLEPEDFAVYYCQHGHSFPRTFGGGTKVEIK |  | 53.4 | 5
